Test results: paper PMC9849454, “Kaposi’s sarcoma-associated herpesvirus induces specialised ribosomes to efficiently translate viral lytic mRNAs” (Nature Communications, 2023)

B1: BUD23 (natural protein, human (endogenous in TREx BCBL1-Rta), UniProt O43709 1-281, looked up)
chain: MASRGRRPEHGGPPELFYDETEARKYVRNSRMIDIQTRMAGRALELLYLPENKPCYLLDIGCGTGLSGSYLSDEGHYWVGLDISPAMLDEAVDREIEGDLLLGDMGQGIPFKPGTFDGCISISAVQWLCNANKKSENPAKRLYCFFASLFSVLVRGSRAVLQLYPENSEQLELITTQATKAGFSGGMVVDYPNSAKAKKFYLCLFSGPSTFIPEGLSENQDEVEPRESVFTNERFPLRMSRRGMVRKSRAWVLEKKERHRRQGREVRPDTQYTGRKRKPRF
B2: NOC4L (natural protein, human (endogenous in TREx BCBL1-Rta), UniProt Q9BVI4 1-516, looked up)
chain: MEREPGAAGVRRALGRRLEAVLASRSEANAVFDILAVLQSEDQEEIQEAVRTCSRLFGALLERGELFVGQLPSEEMVMTGSQGATRKYKVWMRHRYHSCCNRLGELLGHPSFQVKELALSALLKFVQLEGAHPLEKSKWEGNYLFPRELFKLVVGGLLSPEEDQSLLLSQFREYLDYDDTRYHTMQAAVDAVARVTGQHPEVPPAFWNNAFTLLSAVSLPRREPTVSSFYVKRAELWDTWKVAHLKEHRRVFQAMWLSFLKHKLPLSLYKKVLLIVHDAILPQLAQPTLMIDFLTRACDLGGALSLLALNGLFILIHKHNLEYPDFYRKLYGLLDPSVFHVKYRARFFHLADLFLSSSHLPAYLVAAFAKRLARLALTAPPEALLMVLPFICNLLRRHPACRVLVHRPHGPELDADPYDPGEEDPAQSRALESSLWELQALQRHYHPEVSKAASVINQALSMPEVSIAPLLELTAYEIFERDLKKKGPEPVPLEFIPAQGLLGRPGELCAQHFTLS

Target: T1, FLAG-2xStrep-PNO1 (UniProt Q9NRX1 1-252)
T1 construct: also called PNO1 bait protein
T1 sequence (Q9NRX1 whole entry): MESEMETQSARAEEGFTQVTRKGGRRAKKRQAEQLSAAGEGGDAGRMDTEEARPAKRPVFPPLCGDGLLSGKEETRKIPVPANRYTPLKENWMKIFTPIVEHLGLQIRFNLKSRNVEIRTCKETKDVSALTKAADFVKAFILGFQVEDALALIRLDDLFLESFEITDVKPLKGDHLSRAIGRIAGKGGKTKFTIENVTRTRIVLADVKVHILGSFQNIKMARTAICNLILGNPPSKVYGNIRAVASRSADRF
Experiment: pull-down
Settings: partners not purified

Binder	fold increase of association during lytic replication over latency (densitometry of pulldown blots, normalised to PNO1) [fold]
B1	4.3
B2	3.1
